According to publication PMC5816610:

Columns and labels:
CRP (purified) = assay: EMSA; details: 1x Transcription buffer (composition in cited ref 50), 37 C, 1 pmol DNA, 10 min then 30 min with protein; 5% PAGE in 1xTBE; purified CRP +/-200 uM cAMP …
[1] = target: sigma70-RNA polymerase holoenzyme (UniProt P0A7Z4+P0A8V2+P0A8T7+P0A800+P00579); assay: EMSA; details: 1x Transcription buffer (composition in cited ref 50), 37 C, 1 pmol DNA, 10 min then 30 min with protein; 5% PAGE in 1xTBE; purified CRP +/-200 uM cAMP …

Substance | binding signal (fold vs no cAMP) (CRP (purified)) | binding [1]
yihU/V intergenic region | 1.3 | 
yihV/W intergenic region | 1.3 | 
ATTTAACGGCAGCAAGGCTATTCAGCAGTTCGTTCGGGTCAATACCGTCAGCGATCAGCATTTCGCGATATTGCTGCAGTTTACGAGTGCGCTCTTCAACTTC (double strand) [hns internal region without promoters] |  | no binding
